Assay results: patent US20040242847A1

Molecular target: human TPO receptor (MPL) (human) (UniProt P40238)
Test: cell-based or functional assay

Substance: human TPO (R&D Systems) (from UniProt P40225 22-353) (ligand)
- proliferation of BaF/mpl cells (WST-8), ED50: 0.027 nM
